Data from the RNAGym collection of RNA variant scans (doi:10.7554/elife.80360).

B1: Twister Ribozyme (parent)
chain: AACACUGCCAAUGCCGGUCCCAAGCCCGGAUAAAAGUGGAGGGGGCGG

Variants of: B1
Test: self-cleavage, relative activity (ratio to wild type); higher = more cleavage; co-transcriptional

Row | Variant | self-cleavage
1 | AACACUGCCAAUGACGCUCCCAAGCCCGGAUAAAAGUGGAGGGGGCGG [C14A G17C] | 0.12
2 | AACACUGCCAAUGACGAUCCCAAGCCCGGAUAAAAGUGGAGGGGGCGG [C14A G17A] | 0.457
3 | AACACUGCCAAUGACGGUCCCAAGCCCGGAUAAAAGUGGAGGCGGCGG [C14A G43C] | 0.182
4 | AACACUGCCAAUGACGGUCCCAAGCCCGGAUAAAAGUGGAGGAGGCGG [C14A G43A] | 0.309
5 | AACACUGCCAAUGGCGGUCCCAAGCCCGGAUAAAAGUGGAGGAGGCGG [C14G G43A] | 0.0789
6 | AACACUGCCAAUGGCGGUCCCAAGCCCGGAUAAAAGUGGAGGGAGCGG [C14G G44A] | 0.174
7 | AACACUGCCAAUGGCGGUCCCAAGCCCGGAUAAAAGUGGAGGGUGCGG [C14G G44U] | 0.125
8 | AACACUGCCAAUGACGGUCCCAAGCCAGGAUAAAAGUGGAGGGGGCGG [C14A C27A] | 0.31
9 | AACACUGCCAAUGACGGUCCCAAGCCGGGAUAAAAGUGGAGGGGGCGG [C14A C27G] | 0.0739
10 | AACACUGCCAAUGGCGGUCCCAAGCCCGGAUAAAAGUGGAGGGGGCGG [C14G] | 0.171
11 | AACACUGCCAAUGACGGUCCCAAGCCCGGAUAAAAGUGGAGGGGGCGG [C14A] | 0.923
12 | AACACUGCCAAUGGCGGUCCCAAGCCCGGAUAAAAGUGGAGCGGGCGG [C14G G42C] | 0.095
13 | AACACUGCCAAUGACGGUCCCAAGCCCGGAUAAUAGUGGAGGGGGCGG [C14A A34U] | 0.866
14 | AACACUGCCAAUGGCGGUCCCAAGCCCGGAUAAAAGUGGAGGGGGAGG [C14G C46A] | 0.078
15 | AACACUGCCAAUGGCGGUCCCAAGCCCGGAUAAGAGUGGAGGGGGCGG [C14G A34G] | 0.182
16 | AACACUGCCAAUGACGGUCCCAAGCCCGGAUAAAAGAGGAGGGGGCGG [C14A U37A] | 0.711
17 | AACACUGCCAAUGACGGUCCCAAGCCCGGAUAAAAGUGGAGGGGGGGG [C14A C46G] | 0.87
18 | AACACUGCCAAUGACGGUCCCAAACCCGGAUAAAAGUGGAGGGGGCGG [C14A G24A] | 0.18
19 | AACACUGCCAAUGACGGUCCCAACCCCGGAUAAAAGUGGAGGGGGCGG [C14A G24C] | 0.0765
20 | AACACUGCCAAUGACGGUCCCAAUCCCGGAUAAAAGUGGAGGGGGCGG [C14A G24U] | 0.146
21 | AACACUGCCAAUGGCGGUCCCAAGCCCGAAUAAAAGUGGAGGGGGCGG [C14G G29A] | 0.182
22 | AACACUGCCAAUGACGGUCCCAAGCCCGGAUCAAAGUGGAGGGGGCGG [C14A A32C] | 0.914
23 | AACACUGCCAAUGACGGUCCCAAGCCCGGAUUAAAGUGGAGGGGGCGG [C14A A32U] | 0.848
24 | AACACUGCCAAUGACGGUCCCAAGCCCGGAUAAAAGUGGAGGGGACGG [C14A G45A] | 0.801
25 | AACACUGCCAAUGACGGUCCCAAGCCCGGAUAAAAGUGGAGGGGCCGG [C14A G45C] | 0.58
26 | AACACUGCCAAUGGCGGUCCCAGGCCCGGAUAAAAGUGGAGGGGGCGG [C14G A23G] | 0.103
27 | AACACUGCCAAUGACGGUCCCAAGCCCGGAUAAAAGUGGCGGGGGCGG [C14A A40C] | 0.189

Row | Variant | self-cleavage
28 | AACACUGCCAAUGACGGUCCCAAGCCCGGAUAAAAGUGGGGGGGGCGG [C14A A40G] | 0.136
29 | AACACUGCCAAUGGCGGUCCCAAGCCCGGAUAAAAGUGGAAGGGGCGG [C14G G41A] | 0.103
30 | AACACUGCCAAUGACCGUCCCAAGCCCGGAUAAAAGUGGAGGGGGCGG [C14A G16C] | 0.0948
31 | AACACUGCCAAUGGCGGUACCAAGCCCGGAUAAAAGUGGAGGGGGCGG [C14G C19A] | 0.0588
32 | AACACUGCCAAUGGCGGUGCCAAGCCCGGAUAAAAGUGGAGGGGGCGG [C14G C19G] | 0.078
33 | AACACUGCCAAUGACGGUCCCAAGCCCGGAUAGAAGUGGAGGGGGCGG [C14A A33G] | 0.84
34 | AACACUGCCAAUGACGGUCCCAAGCCCGGAUACAAGUGGAGGGGGCGG [C14A A33C] | 0.884
35 | AACACUGCCAAUGACGGUCCCAAGCCCGGAUAAAAGUGGAGGGGGCGC [C14A G48C] | 1.04
36 | AACACUGCCAAUGGCGGUCCCAAGCCCGGAUAGAAGUGGAGGGGGCGG [C14G A33G] | 0.0896
37 | AACACUGCCAAUGGCGGUCCCAAGCCCGGAUACAAGUGGAGGGGGCGG [C14G A33C] | 0.176
38 | AACACUGCCAAUGACGGUCCGAAGCCCGGAUAAAAGUGGAGGGGGCGG [C14A C21G] | 0.1
39 | AACACUGCCAAUGACGGUCCAAAGCCCGGAUAAAAGUGGAGGGGGCGG [C14A C21A] | 0.128
40 | AACACUGCCAAUGGCGGUCCCAAGCCUGGAUAAAAGUGGAGGGGGCGG [C14G C27U] | 0.0942
41 | AACACUGCCAAUGGCGGUCCCAAGCCAGGAUAAAAGUGGAGGGGGCGG [C14G C27A] | 0.0743
42 | AACACUGCCAAUGGCGGUCCCAAGCCGGGAUAAAAGUGGAGGGGGCGG [C14G C27G] | 0.0942
43 | AACACUGCCAAUGACGGUCCCAAGCCCGGAUAAAAGUGGAGGGAGCGG [C14A G44A] | 0.838
44 | AACACUGCCAAUGACGGUCCCAAGCCCGGAUAAAAGUGGAGGGCGCGG [C14A G44C] | 0.772
45 | AACACUGCCAAUGGCGGUCCCAAGCCCGGCUAAAAGUGGAGGGGGCGG [C14G A30C] | 0.16
46 | AACACUGCCAAUGGCGGUCCCAAGCCCGGGUAAAAGUGGAGGGGGCGG [C14G A30G] | 0.122
47 | AACACUGCCAAUGGCGUUCCCAAGCCCGGAUAAAAGUGGAGGGGGCGG [C14G G17U] | 0.101
48 | AACACUGCCAAUGACGGUCCCAAGCCCGGAUAAAAGUGGACGGGGCGG [C14A G41C] | 0.294
49 | AACACUGCCAAUGGCGGUCCCAAGCCCGGAUAAAAGUGGGGGGGGCGG [C14G A40G] | 0.0712
50 | AACACUGCCAAUGGCGGUCCCAAGCCCGGAUAAAAGUGGUGGGGGCGG [C14G A40U] | 0.0589
51 | AACACUGCCAAUGGCGGUCCCAAGCCCGGAUAAAAGUGGCGGGGGCGG [C14G A40C] | 0.067
52 | AACACUGCCAAUGGCGGUCCCAAGCCCUGAUAAAAGUGGAGGGGGCGG [C14G G28U] | 0.157
53 | AACACUGCCAAUUCCGGUCCCAAGCCCGGAAAAAAGUGGAGGGGGCGG [G13U U31A] | 0.43
54 | AACACUGCCAAUUCCGGUCCCAAGCCCGGAGAAAAGUGGAGGGGGCGG [G13U U31G] | 0.667
